The supplement of paper PMC7125110
± gives the standard error. Variants at the floor of the assay were thinned out.

B1: glmS ribozyme (parent)
chain: AUAAAAGCGCCAGAACUACAGAAAUGUAGUUGACGAGGAGGAGGUUUAUCGAAUUUUCGGCGGAUGCCUCCAAA

How the values were obtained:
Conditions in all cases: with glucosamine-6-phosphate
[1] = variants of: B1; assay: self-cleavage kobs at 40 uM GlcN6P; higher = faster cleavage; RNA array
Summary of the method: (§1)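 Barcoded ribozyme variants, transcribed in situ by E. coli RNA polymerase on sequenced MiSeq chips, were followed via a hybridised Cy3 probe at 37 °C. Glucosamine-6-phosphate ranged from 40 μM to 10 mM in HEPES/KCl/Mg(OAc)2 buffer. kobs came from decay fits to per-tile medians, and kcat and KM from weighted Michaelis–Menten fits.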

[2] = variants of: B1; assay: self-cleavage kobs at 10000 uM GlcN6P; higher = faster cleavage; RNA array
Summary of the method: as §1

[3] = variants of: B1; assay: self-cleavage kobs at 160 uM GlcN6P; higher = faster cleavage; RNA array
Summary of the method: as §1

[4] = variants of: B1; assay: self-cleavage kobs at 640 uM GlcN6P; higher = faster cleavage; RNA array
Summary of the method: as §1

[5] = variants of: B1; assay: self-cleavage kobs at 2500 uM GlcN6P; higher = faster cleavage; RNA array
Summary of the method: as §1

AUAAAAGCGCCAGAACUACAGAAAUGUAGUUCACGAGGGGGAAGUUUAUCGAAUUUUCGGCGGAUGCCUCCAAA
self-cleavage kobs at 40 uM GlcN6P [1]: < 1e-05 s⁻¹

AUAAAAGCGCCAGAACUACAGAAAUGUAGUUCACGAGGAAGAGGUUUAUUGAAUUUUCGGCGGAUGCAUCCAAA
self-cleavage kobs at 40 uM GlcN6P [1]: < 1e-05 s⁻¹
self-cleavage kobs at 10000 uM GlcN6P [2]: < 1e-05 s⁻¹

AUAAAAGCGCCAGAACUACAGAAAUGUAGUUCACGAGGAGGAGGUUUACCGAAUUUUCGGCGGAUGCCUCCAAA
self-cleavage kobs at 40 uM GlcN6P [1]: < 1e-05 s⁻¹
self-cleavage kobs at 160 uM GlcN6P [3]: < 1e-05 s⁻¹

AUAAAAGCGCCAGAACUACAGAAAUGUAGUUCACGAGGAGGAGGUUUAACGAAUUUUCGGCGGAUGCCUCCAAA
self-cleavage kobs at 40 uM GlcN6P [1]: < 1e-05 s⁻¹
self-cleavage kobs at 160 uM GlcN6P [3]: < 1e-05 s⁻¹
self-cleavage kobs at 640 uM GlcN6P [4]: < 1e-05 s⁻¹
self-cleavage kobs at 10000 uM GlcN6P [2]: < 1e-05 s⁻¹

AUAAAAGCGCCAGAACUACAGAAAUGUAGUUAAUGAGGAGGAGGUUUAUUGAAUUUUCGGAGGAUACCUCCAAA
self-cleavage kobs at 40 uM GlcN6P [1]: 4.94e-05 ± 2.4e-05 s⁻¹

AUAAAAGCGCCAGAACUACAGAAAUGUAGUGGACGAGGAGGAGGUUUAUCGAAUUUUCGGCGGAUGCAUCCAAA
self-cleavage kobs at 40 uM GlcN6P [1]: < 1e-05 s⁻¹
self-cleavage kobs at 640 uM GlcN6P [4]: 3.5e-05 ± 1.6e-05 s⁻¹
self-cleavage kobs at 2500 uM GlcN6P [5]: 8.49e-05 ± 1.9e-05 s⁻¹

AUAAAAGCGCCAGAACUACAGAAAUGUAGUGGACGAGGAGGAGGUUUAUCGAAUUUUCGGCGGAUGCCUCAAAA
self-cleavage kobs at 40 uM GlcN6P [1]: 0.000103 ± 1.4e-05 s⁻¹
self-cleavage kobs at 160 uM GlcN6P [3]: 0.000505 ± 0.00012 s⁻¹
self-cleavage kobs at 640 uM GlcN6P [4]: 0.000376 ± 8.1e-05 s⁻¹
self-cleavage kobs at 2500 uM GlcN6P [5]: 0.000715 ± 0.00018 s⁻¹
self-cleavage kobs at 10000 uM GlcN6P [2]: 0.00392 ± 0.00068 s⁻¹

AUAAAAGCGCCAGAACUACAGAAAUGUAGUUAACGAGGAGGAGGUUUAUCGAAUUUUCGGGGGAUGCCUCCAAA
self-cleavage kobs at 40 uM GlcN6P [1]: < 1e-05 s⁻¹

AUAAAAGCGCCAGAACUACAGAAAUGUAGUUAACCAGGAGGAGGUUUAUCGAAUUUUCGGCGGAUGGCUCCAAA
self-cleavage kobs at 40 uM GlcN6P [1]: < 1e-05 s⁻¹
self-cleavage kobs at 10000 uM GlcN6P [2]: < 1e-05 s⁻¹

AUAAAAGCGCCAGAACUACAGAAAUGUAGUGGACGAGUAGGAGGUUUAUCGAAUUUUCGGUGGAUGCCUCUAAA
self-cleavage kobs at 40 uM GlcN6P [1]: < 1e-05 s⁻¹

AUAAAAGCGCCAGAACUACAGAAAUGUAGUUCACAAGGAGGAGGUUUAUCUAAUUUUCGGCGGAUGCCUCCAAA
self-cleavage kobs at 40 uM GlcN6P [1]: < 1e-05 s⁻¹
self-cleavage kobs at 2500 uM GlcN6P [5]: < 1e-05 s⁻¹
self-cleavage kobs at 10000 uM GlcN6P [2]: < 1e-05 s⁻¹

AUAAAAGCGCCAGAACUACAGAAAUGUAGUUAACGCGGAGGGGGUUUAUCGAAUUUUCGGCGGAUGCCUGCAAA
self-cleavage kobs at 40 uM GlcN6P [1]: < 1e-05 s⁻¹
self-cleavage kobs at 10000 uM GlcN6P [2]: < 1e-05 s⁻¹

AUAAAAGCGCCAGAACUACAGAAAUGUAGUUCAUGAGGAGGAGGUUUAUCGAAUUUUCGGCGGAUGCCUCCAAA
self-cleavage kobs at 40 uM GlcN6P [1]: < 1e-05 s⁻¹
self-cleavage kobs at 160 uM GlcN6P [3]: < 1e-05 s⁻¹
self-cleavage kobs at 640 uM GlcN6P [4]: < 1e-05 s⁻¹
self-cleavage kobs at 2500 uM GlcN6P [5]: < 1e-05 s⁻¹
self-cleavage kobs at 10000 uM GlcN6P [2]: < 1e-05 s⁻¹

AUAAAAGCGCCAGAACUACAGAAAUGUAGUUCACGAGGCGGAGGUUUAUCGAAUUUUCGGCGGAUGCCUCCAAA
self-cleavage kobs at 40 uM GlcN6P [1]: < 1e-05 s⁻¹
self-cleavage kobs at 160 uM GlcN6P [3]: < 1e-05 s⁻¹

AUAAAAGCGCCAGAACUACAGAAAUGUAGUUCACGAGGGGGAGGUUUAUCGAAUUUUCGGCGGAUGCCUCCAAA
self-cleavage kobs at 40 uM GlcN6P [1]: < 1e-05 s⁻¹
self-cleavage kobs at 160 uM GlcN6P [3]: < 1e-05 s⁻¹
self-cleavage kobs at 2500 uM GlcN6P [5]: 3.52e-05 ± 1.2e-05 s⁻¹
self-cleavage kobs at 10000 uM GlcN6P [2]: 0.000101 ± 1.4e-05 s⁻¹
